Assay: soluble on expression in E. coli; label from the status in PepcDB or PDB records

Row | Sequence | soluble on expression in E. coli
1 | MKPLSSPLQQYWQTIVERLPEPLAEESLSAQAKSVLTFSDFVQDSISAHPEWLTELESQPPQADEWQHYVAWLQEALINVSDEAGLMRELRLFRRRIMVRIAWAQTLALVTEESILQQLSYLAETLIVAARDWLYDACCREWGTPCNAQGEAQPLLILGMGKLGGGELNFSSDIDLIFAWPEHGCTQGGRWELDNAQFFTRMGQRLIKVLDQPTQDGFVYRVDMRLRPFGESGPLVLSFAALEDYYQEQGRDWERYAMVKARIMGDSEGVYANELRAMLRPFVFRRYIDFSVIQSLRNMKGMIAREVRRRGLTDNIKLGAGGIREIEFIVQVFQLIRGGREPSLQSRSLLPTLSVIAALHLLSENDAEQLRVAYLFLRRLENLLQSINDEQTQTLPSDELNRARLAWAMDFADWPQLTGALTAHMTNVRRVFNELIGDDESETQEESLSEQWRELWQDALQEDDTTPVLAHLSEDDRKQVLTLIADFRKELDKRTIGPRGRQVLDHLMPHLLSDVCAREDAAVTLLRITALLAGIVTRTTYLELLSEFPAALKHLISLCAASPMIASQLARYPLLLDELLDPNTLYQPTATDAYRDELRQYLLRVPEDDEEQQLEALRQFKQAQLLRIAAADIAGTLPVMKVSDHLTWLAEAMIDAVVQQAWVQMVARYGKPNHLNEREGRGFAVVGYGKLGGWELGYSSDLDLIFLHDCPMDAMTDGEREIDGRQFYLRLAQRIMHLFSTRTSSGILYEVDARLRPSGAAGMLVTSTEAFADYQKNEAWTWEHQALVRARVVYGDPQLTAHFDAVRREIMTLPREGKTLQTEVREMREKMRAHLGNKHRDRFDIKADEGGITDIEFITQYLVLRYAHEKPKLTRWSDNVRILELLAQNDIMEEQEAMALTRAYTTLRDELHHLALQELPGHVPEDCFTAERELVRASWQKWLVEE | not soluble
2 | GMTRIASHRGGTLEFGDSTPHGFTATAAMALEEVEFDLHPTADGAIVVHHDPTLDATTDMTGAIVDMTLAKVKTATIRYGAGSHPMTLEELCALYVDSHVNFRCEIKPGVDGLPYEGFVALVIAGLERHSMLERTTFSSFLLASMDELWKATTRPRLWLVSPSVLQQLGPGAVIETAIAHSIHEIGVHIDTADAGLMAQVQAAGLDFGCWAAHTPSQITKALDLGVKVFTTDRPTLAIALRTEHRMEASV | soluble
3 | MDIIRLGDTTSHGGTVIEAFGQTDLNGKPMAGVGHQVVCPLCKGTFPITEGSALLDVNGVPVALHGMKTACGASLIASGPLGAAEN | not soluble
4 | MALEPIDYTTHSREIDAEYLKIVRGSDPDTTWLIISPNAKKEYEPESTGSSFHDFLQLFDETKVQYGLARVSPPGSDVEKIIIIGWCPDSAPLKTRASFAANFAAVANNLFKGYHVQVTARDEDDLDENELLMKISNAAGA | soluble
5 | MRRCCGDLAASRGGCEPASRNLTRTRLTFAALGRINRPAEHDREDAMTRQEARDHEPRDQDAALSRRTLVRGLALGAAATMAGPALAQTGPAAPPTTITTPPRDFGPNGAPTTYFWDPDIIAVDPSFDDLAQPNTAIKRLYTGVLWAEGPAWSAQGRYLLWSDIPNNRQMRWSEDDGRISVFRSPSNNSNGNSFDFQGRQLSCEHLTRRVTRYEHDGTATVLCDNYNGKKLNSPNDVVAHPDGSYWFTDPPYGGQLYEGEPDAAGGPSNSGGKLNPRIGQPAGFTPGKRELPTNCYRIDPSGRVDLVVTEEQVPDPNGLCFSPDFKKLYVVSTGKGPGDSGPGGKGEIFVFDVGADNKLSNQKRFSDCTIDGVKCGPDGVRCDVNGNVWASSNAGRAVGYSGVTVWSPEGKLLGRIRLPEVCGNICFGGPKRNRLFMAASQSLYAVFTATQGAGPGLEHHHHHH | soluble
6 | MTSVDCTAYGPELRALAARLPRTPRADLYAFLDAAHTAAASLPGALATALDTFNAEGSEDGHLLLRGLPVEADADLPTTPSSTPAPEDRSLLTMEAMLGLVGRRLGLHTGYRELRSGTVYHDVYPSPGAHHLSSETSETLLEFHTEMAYHRLQPNYVMLACSRADHERTAATLVASVRKALPLLDERTRARLLDRRMPCCVDVAFRGGVDDPGAIAQVKPLYGDADDPFLGYDRELLAPEDPADKEAVAALSKALDEVTEAVYLEPGDLLIVDNFRTTHARTPFSPRWDGKDRWLHRVYIRTDRNGQLSGGERAGDVVAFTPRG | soluble
7 | GMKYKAAIFDMDGTILDTSADLTSALNYAFEQTGHRHDFTVEDIKNFFGSGVVVAVTRALAYEAGSSRESLVAFGTKDEQIPEAVTQTEVNRVLEVFKPYYADHCQIKTGPFPGILDLMKNLRQKGVKLAVVSNKPNEAVQVLVEELFPGSFDFALGEKSGIRRKPAPDMTSECVKVLGVPRDKCVYIGDSEIDIQTARNSEMDEIAVNWGFRSVPFLQKHGATVIVDTAEKLEEAILGE | soluble
8 | PKALIVYGSTTGNTEYTAETIARELADAGYEVDSRDAASVEAGGLFEGFDLVLLGCSTWNDDSIELQDDFIPLFDSLEETGAQGRKVACFGCGDSSYEYFCGAVDAIEEKLKNLGAEIVQDGLRIDGDPRAARDDIVGWAHDVRGAI | soluble
9 | MLLVSTGAAGAEVIYVEPGASIQAAVNNSTTGDFIIVKAGEYEENIVVNVSGVTVSSEPEKSGSVFIRAGDRNSSVFQVKADNVTISGFNITGSGEFFSTHEASSPRDSFPKDPDGQGVSDIPELRKTYSLGSGEVFISRSTEFDCPQAGICLDQVENCTIERNHIFENQYGVYLQGSMNNTLSNNTFFRNGILIDEGCSRNTAENNSIEEGNLIIGAHCWDNIISRNRLSNGGGIGIACCGGGNLVSNNEIINCSTGVDMYDTQARTVLCGNLITDCDYGIYLILVYDSRVYNNTISNSSRGIFLRENSQNNELSGNIINSSNESGIYLLDHCADNRIFNNYFNNTVNVKAENSKGNSWNITKAPGINIAEGPYLGGNFWADLNGTGYSQIAEDSDSDGICDLPYNVNGCDYDYLPLARLPFSPSLSGGNLKLLEHHHHHH | not soluble
10 | MAHHHHHHMSLTKGSKAAQDVISFLHTVGRLKVTARQGWVENQICSPESVSDHMYRMSLMCMMCPDTSLNRDRMVKMALCHDTGESIIGDISPAMKVPKEVKKQQESQAVQSLCKLVSSSPNTTFSKELGDLFEEYEAQETAESHFVKDMDLLEMVVQAHSYESANPGKDLGSFFRSGANIHHPWARAIYETLLETRPYLAYKEEQAKEASSI | soluble
11 | KEQILSSEQLARKMMLELGDKKQEHLVAIYMDTQNRIIEQRTIFIGTVRRSVAEPREILHYACKNMATSLIIIHNHPSGSPKPSESDLSFTKKIKRSCDHLGIVCLDHIIVGKNKYYSFREEADIL | soluble
12 | MFLKKETFTRGDASVALFELSGLQRIEYLEFIQKRTAKYDTDMDGTTEADKRVAYMQMALEINAWLVSRSLLNGDSSQDADTLYQSVQAKWSYEALDAGAESVLMLSGLSADKKDNASDSGNESEDMTPEKS | not soluble
13 | MSLDKSLLKIVTNETGVATTTVEKVIALLDEGNTVPFIARYRKEVTGGLDEVKIKSIQDKWNYVVNLSERKQEVLRIIEEQGKLTKELENDIKAATQLQRVEDLYRPYKQKRRTRATIAKEKGLEPLALLVWSQEKDIDLQEEAKQYFSEEHELHTTEDVLQGINDIIAEWISDDAKYRDYIRDITFKRGLIQSEVKKQEDDEKGIYEMYYSYSEAVRSLVSHRILALNRGEKEKILKVQIEPPVEQITSYLEKQTIKNNSNEQITNSLKAAVEDSYKRLIQPSIEREIRNELTEKAEAQAIEVFSVNLKNLLLQPPLKGKVVLSVDPAFRTGCKLAVVDETGKVHHIGVIYPTAPKNDVKGAEKVVLQLIEQFSVELIAIGNGTASRETEQFISDVIRNKELDLPYIIVNEAGASVYSASPLAREEFPDLQVEERSAVSIARRVQDPLAELVKIDPKSIGVGQYQHDVSQKELSGSLSFVVETAVNQVGVNVNTASSSLLQYVSGLSKTVANNMVKQRNEEGKFTNRKQLKKIPRLGAKTYEQAIGFLRIPDGDTILDRTPIHPESYDQTKNLLQMLGYTENDIGSEKLQQDLNNIDKKATAEKLEIGLPTLEDIMEALGKPGRDPRDDFPQPLLKKNVMNMEDLKSGMELQGTVRNVVDFGVFVDIGVKQDGLVHISKMSKQFVKHPMDIASVGDVVTVWVDQVDVQKGRIALTMVGNDEGHHHHHH | soluble
14 | MNYEIVCGIETHIELATKTKIFCGCTTEFGGEPNTHCCPVCTGQPGSLPILNQKVVEYAIKAGLALNCKINTKSHMDRKNYVYPDLPKAYQISQYDEPLCEKGYIELDSGKRIGITRIHIEEDAGKLVHENGYTYIDYNRSGVPLIEIVSEPDISSAEEAREYAEKLQLIMRYIGISDCKMQEGSMRCDVNLSLRKPGDSRFGVRTEIKNINSLSFIQKAVMAEAERQADILDAGGTVVQQTMRYDEATNSVSPMRDKENSDDYRYFPDPDILRFSINDEKVEEIRASLPELPFDKLKRYVNVLGLPEATARQIFRYRKVAEFFEGALAEGASVKNAANLIVGTIFSNMDTEEEKELFDIRISSAQFAALVKLADEKKINIGVAQSTLQKMLESGKPVEEFIKPEDLAGISDEELESLCKEAIDANPKAVADVRSGKDKAINVMFGYIMKKTGGKADIRKVEVLLRKLIGQ | soluble
15 | MDIDMNYPSITTLMSNESANLLIIWGNATPDISYLSYTTNPMLGDYVLNVSAINGCTEELIATHLVPTLENATQWVYDAGEYWDNYSFTDESTPLPGLSWPFNE | not soluble
16 | PWLENVQVQLSDLFSELKYNSVSGSGKIGIMASGVSALYVKEAVKGFEELFTLFRVGTVYPFPEKAALSFLKGIEKLIVVEELDPYLEEQALQLIGRAHLPADVYGKKNGFFPVSGEYNVDIIIDCINKVLAELGETSRLSHSAPAIPRSGLPPLPVRAPTLCAGCMHRTVFYAFKQASKQLKKDFQVETIFSGDIGCYTLGNAHPLNMVDTCLCMGAGMSIAGGLSRANPGVKQVAFIGDSTFFHSGIPAVINAVYNGSDVTLAVLDNRTTAMTGHQTHPGIGVTVLGSPSKAVDISDVIRSCGVELVRSVDIDSLENSLEGCIEAAKEAVEFKGPSAVVFKGKCVGITKPVIRFEIDTESCTGCGLCVKQLGCPALFLPAGEEKPVIQDSCSGCGLCAQVCPSGAIIETGVK | not soluble
17 | GPVDEVSFHSVVQQLKARQQATDEQLEELQEAFAKVQERNSVFSDWLKISAMLCAATLALSQVVKMAKAVKQMVKPDLVRVQLDEQEQGPYNETARVKPKTLQLLDIQGPNPVMDFEKYVAKHVTAPIGFVYPTGVSTQTCLLVRGRTLVVNRAMAESDWTSIVVRGVTHARSTVKILAIAKAGKETDVSFIRLSSGPLFRDNTSKFVKAGDVLPTGAAPVTGIMNTDIPMMYTGTFLKAGVSVPVETGQTFNHCIHYKANTRKGWSGSALLADLGGSKKILGIHSAGSMGIAAASIVSQEMIRAVVNAFEPQ | soluble
18 | MEKLIILGAQWGDEGKGKIVDLLSEHFDITVRYQGGSNAGHTVVVNSQKFILHLLPTGILHEHVKGVIAQGMVVDLEVLHKEVKNLEEKGIYVKERLFISDRAHLVMPYHKLLDSLFEKKKGIGTTLRGIGPAYMFKYGRKGIRISDLKDEKRFYTLLEDNLDFVKNICEKVFCEKFDLDINQIYEEQLRYFEEFKENVVDLLRFFNTQKGSVLFEGAQGTLLDVDMGTYPYVTSSNASALGLSNGTGMPPKYFSDAFFLGVAKAYTTRVGEGPFPTELKGEEGEKLRELGGEYGSTTGRPRRCGWLDLVALKYAVQVNGLDGFVITKLDVLDTFDEVKVCVAYELDGEVIDYFPASYSELIRVKPVYKTLKGWKKSTKGAKDVSELPKEALDYVKFIEEYTGVPVVMLSTGPKRDEYIWLKEILRTRSGYS | soluble
19 | MYDTVRDRLIHLHHCRGAGWKTIHSLLKVDPTLTAPFSLPPNDLRPLVPLSDAQWTAFFHDLHSIDVQRVIKTYKGRCIRVITVFDSDYPPLLKYIYAPPWVLYAKGDSALLQEWKLISIVGTRRPTKEGIEALNKLVPPLVAAGFTIVSGLAFGIDVCAHQLAVQHGGSTIAVIAGGLDHIYPKEHRPFATLLMNEQLVIAEHPPATRPQAWQFPARNRIISGLSLGTLVVQAKRKSGSLITAAYALEQGREVFAVPGPIGLAESAGPNTLIQHGAKLVQEAADILDEFPYV | not soluble

Source: the DeepSol protein solubility set
